From the nanobody polyreactivity screen of Harvey et al. (2022)

Test: yeast display, Sf9 membrane polyspecificity reagent, FACS + sequencing; frameworks hold sequencing errors
Summary of the method: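 Nanobodies from a synthetic yeast display library (Saccharomyces cerevisiae BJ5465), induced 36–48 hours with galactose, were stained 1 hour at 4 °C with 10% biotinylated, detergent-solubilized Sf9 membrane reagent, enriched on streptavidin microbeads, then FACS-sorted. Anti-HA (expression) and streptavidin (reagent binding) fluorescence set low and high (top ~1%) gates. Polyreactivity labels come from the gate of origin. Genes were colony-PCR amplified, MiSeq 2 × 250 sequenced and filtered by CDR length.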

| Sequence | polyreactivity (PSR sort gate) |
| --- | --- |
| QVQLVESGGGLVQAGGSLRLSCAASGLTFTAYAMGWYRQAPGKERELVAAISVRGGRTYYADSVKGRFTISRDNAKNTVYLQMNSLKPEDTAVYYCNAVRFISARYDYWGQGTQVTVSS | high polyreactivity |
| QVQLVESGGGLVQAGGSLRLSCAASGLTFTGYAMGWYRQAPGKERELVAAISRGDSTYYAYSVNGRFTISRDNAKNTVYLQMNSLKPEDTAVYYCAAYKGYGRRPGVSGYYWGQGTQVTVSS | high polyreactivity |
| QVQLVESGGGLVQAGGSLRLSCAASGLTFTKYAMGWYRQAPGKERELVAAINRRGGSTYYADSVKGRFTISRDNAKNTVYLQMNSLKPEDTAVYYCAKRKSVRSTPSYEYWGQGTQVTVSS | high polyreactivity |
| QVQLVESGGGLVQAGGSLRLSCAASGLTFTRYDMGWYRQAPGKERELVASISQSGTSTHYADSVKGRFTISRDNAKNTVYLQMNSLKPEDTAVYYCAADYVSRYYVKWYRGFDYWGQGTQVTVSS | low polyreactivity |
| QVQLVESGGGLVQAGGSLRLSCAASGLTFTTYAMGWSRQAPGKERELVAAISRRGSRTYYADSVKGRFTISRDNAKNTVYLQMNSLKPEDTAVYYCNALTGSFKTYSFDYWGQGTQVTVSS | high polyreactivity |
| QVQLVESGGGLVQAGGSLRLSCAASGLTFTYYALGWYRQAPGKERELVAAISSSGSDTYYADSVKGRFTISRDNAKNTVYLQMNSLKPEDTAVYYCAAVLTGLSPDFEYEYWGQGTQVTVSS | low polyreactivity |
| QVQLVESGGGLVQAGGSLRLSCAASGLTFTYYAMGWYRQAPGKERELVAAISWSGGSTYYADSVKGRFTISRDKAKNTVYLQMNSLKPEDTAVYYCAAVDPFTPYDRTYTTDGRESDYWGQGTQVTVSS | low polyreactivity |
| QVQLVESGGGLVQAGGSLRLSCAASGLTFTYYAMGWYRQAPGKERELVAAITGGARTYYADSVKGRFTISRDNAKNTVYLQMNSLKPEDTAVYYCATQGAQKRYKYNYWGQGTQVTVSS | high polyreactivity |
| QVQLVESGGGLVQAGGSLRLSCAASGLTFVDNAMGWYRQAPGQERELVAAITKRGGRTYYADSVKGRFTISRDNAKNTVYLQMNSLKPEDTAVNYCARESGNDSSRRLDYWGQGSQVTVSS | low polyreactivity |
| QVQLVESGGGLVQAGGSLRLSCAASGLTFVDNAMGWYRQAPRKERELVAGITQSGGSTNYADSVKGRFTISRDNAKNTVYLQMNSLKPEDTAVYYCAKDTYRAYFRWEYGYWGQGTQVTVSS | low polyreactivity |
| QVQLVESGGGLVQAGGSLRLSCAASGLTFVEYAMAWYRQAPGKERELVAAITSTDGTNYADSVKGRFTISRDNAKNTVYIQMNSLKPADTAVYYCFTLAQDFYFWYYYWGQGTQVTVSS | high polyreactivity |
| QVQLVESGGGLVQAGGSLRLSCAASGLTFVKNVMGWYRQAPGKERELVAAISRRGGSTYYADSVKGRFTISRDNAKNTVYLQMNSLKPEDTAVYYCNAVLNQLSYIYPAVGYWGQGTQVTVSS | high polyreactivity |
| QVQLVESGGGLVQAGGSLRLSCAASGLTFVNYAMGWYRQAPGKERELVATISKTGGSTYYADSVKGRFTISRDNAKNTVYLQMNSLKPEDTAVYYCAARRARRSGYYYWGQGTQVTVSS | high polyreactivity |
| QVQLVESGGGLVQAGGSLRLSCAASGLTFVSYVMGWYRQAPGKERELVAAISSSGGRTYYADSVKGRFTISRDNAKNTVYLQMNSLKPEDTAVYYCAVYGYHEGGYWGQGTQVTVSS | high polyreactivity |
| QVQLVESGGGLVQAGGSLRLSCAASGLTFVTYVMGWYRLAPGKERELVAAISYSGGSTYYADSVKARFTISRDNAKNTVYLLMNSLKPEDTAVYYCAAEWYGYEEDDYWGQGTQVTVSS | low polyreactivity |
| QVQLVESGGGLVQAGGSLRLSCAASGLTFVTYVMGWYRPAPGKERELVAAISYSGGSTYYADSVKGRFTISRDNAKNTVYLQMNSLKPEDTAVYYCAAEWYGYQEDDYWGQGTQVTVSS | low polyreactivity |
| QVQLVESGGGLVQAGGSLRLSCAASGLTFVWYVMGWYRQAPGKERELVAAITSGGTTYYADSVKGRFTISRDNAKNTVYLQMNSLKPEDTAVYYCAAQWAGYGDLPWPYSVIVEFYYWGQGTQVTVSS | low polyreactivity |
| QVQLVESGGGLVQAGGSLRLSCAASGLTFVYNAMGWYRQAPGKERELVADISYDGGGTYYADSVKGRFTISRDNAMNTVYLQMNSLKPEDTAVYYCAKRAFGSQGEISYTPPGYDSWGQGTQVTVSS | low polyreactivity |
| QVQLVESGGGLVQAGGSLRLSCAASGLTFVYYAMGWYRQAPGKERELVAAISGVGSTHYADSVKGRFTISRDNANNTVYLQMNSLKPEDTAVYYCNADYAYFWGWYGDWGQGTQVTVSS | low polyreactivity |
| QVQLVESGGGLVQAGGSLRLSCAASGLTFWRYTMGWYRQAPGKERELVAVITYRGGSTYYADSVKGRFTISRDNAKNTVYLQMNSLKPEDTAVYYCAAGRRTYGLTYDYWGQGTQVTVSS | high polyreactivity |

| Sequence | polyreactivity (PSR sort gate) |
| --- | --- |
| QVQLVESGGGLVQAGGSLRLSCAASGLTFWYYAMGWYRQAPGKERELVARITRSGVGTYYADSVKGRFTISRDNAKNTVYLQMNSLKPEDTAVYYCNARYQYSWVRYGYDYWGQGTQVTVSS | high polyreactivity |
| QVQLVESGGGLVQAGGSLRLSCAASGLTFWYYGMGWYRQAAGKERELDAAISKTGGRTYYADSVKGRFTISRDNAKNTVYLQMNSLKPEDTAVYYCAADTDVLKGTTGFEYWGQGTQVTVSS | low polyreactivity |
| QVQLVESGGGLVQAGGSLRLSCAASGLTFYAYVMGWYRPAPGNERELVAAISGGGSTYYADSVKGRFTISRDNAKNSVYLEMISLKPEDTAVYYCNAELSLWDLGYDYWVQGTQVTVSS | low polyreactivity |
| QVQLVESGGGLVQAGGSLRLSCAASGLTFYFYAMGWYRQAPGKERELVAAISYSGGSTYYADSVKGRFTISRDKAENTVYLQMNSLKPEDTAVYYCAARPTDGSGWPYRWTSDYWGHGTQVTVSS | low polyreactivity |
| QVQLVESGGGLVQAGGSLRLSCAASGLTFYGNAMGWYRQAPGKERELVADISLSGGRTFYADSVKGRFTISRDNAKNTVYLQMNSLKPEDTAVYYCAAVWRTGWYYEYYHWGQGTQVTVSS | low polyreactivity |
| QVQLVESGGGLVQAGGSLRLSCAASGLTFYGNARGWYRQAPGKERELVADISLSGGRTFYADSVKGRFTISRDNAKHTVYLQMNSLKPEDTAVYYCANTYTSGYHRRYDYWGQGTQVTVSS | low polyreactivity |
| QVQLVESGGGLVQAGGSLRLSCAASGLTFYIYAMGWYRQAHGKERELVASISSSGGITYYADSVKGRFTISRDNAKNTVYLQMNSLKPEDTAVYYCAATYSHRRGDYWGQGTQVTVSS | high polyreactivity |
| QVQLVESGGGLVQAGGSLRLSCAASGLTFYQNAMGWYRQAPGKEREFVASITRRGGRTYYADSVKGRFTISRDNAKNTVYLQMNSLKPEDTAVYYCAATFPQYQAIKEDYWGQGTQVTVSP | high polyreactivity |
| QVQLVESGGGLVQAGGSLRLSCAASGLTFYQYTMGWYRQAPGKERELVAAISRRGGSTYYADSVKGRFTISRDNAKNTVYLQMNSLKPEDTAVYYCAARALRYSRDFDYWGQGTQVTVSS | high polyreactivity |
| QVQLVESGGGLVQAGGSLRLSCAASGLTFYRNVMGWYRQAPGKERELVAAISGNGGSTYYADSVKGRFTISRDNAKNTVYLQMNSLKPEDTAVYYCATRAYDTGYGYWGQGTQVTVSS | high polyreactivity |
| QVQLVESGGGLVQAGGSLRLSCAASGLTFYRYAMGWYRQAPGKERELVAAITSGGGRTYYADSVKGRFTISRDNAKNTVYLQMNSLKPEDTAVYYCAADRGDYRWRGLTPSSYGYWGQGTQVTVSS | high polyreactivity |
| QVQLVESGGGLVQAGGSLRLSCAASGLTFYSYAMGWYRQAPGKERELVATIRWSGGSTYYADSVKGRFTISRDNAKNTVYLQMNSLKPEDTAVYYCATSSTHSRGDEYWGQGTQVTVSS | low polyreactivity |
| QVQLVESGGGLVQAGGSLRLSCAASGLTFYVNARGWYRQAPGKERELVATISGSGSTNYADSVKGRFTISRDNAKNTVYLQMNSLKPEDTAVYDCNAGWAQDPSNYWGQGTQVTVSS | high polyreactivity |
| QVQLVESGGGLVQAGGSLRLSCAASGLTFYYYAMGWYRQAPGKEREFVAAISYRGGRTYYADSVKGRFTISRDNAKNTVYLQMNSLKPEDTAVYYCAKLGKSRWWGVGPLEMDSWGQGTQVTVSS | high polyreactivity |
| QVQLVESGGGLVQAGGSLRLSCAASGLTFYYYAMGWYRQAPGKERELVARISSGTSTYYADSVKGRFTISRDNAKNTVYLQMNSLKPEDTAVYFCNARRKLGSTHGPWGGLVYWGQGTQVTVSS | low polyreactivity |
| QVQLVESGGGLVQAGGSLRLSCAASGLTFYYYVMGWYRQAPGKERELVAAISYSGGRTYYADSVKGRFTISRDNAKNTVSLQMNSLKPEDTAVYYCAAQSRYGGKFYYWGQGTQVTVSS | high polyreactivity |
| QVQLVESGGGLVQAGGSLRLSCAASGLTIAAYAMGWYRQAPGKERELVAAITQRGGSTYYADSVKGRFTISRDNAKNTVYLQMNSLKPEDTAVYYCAADSTWWWWKLYSPYGYDYWGQGTQVTVSS | low polyreactivity |
| QVQLVESGGGLVQAGGSLRLSCAASGLTIYHYAMGWYRQAPGKERELVAAISWNGGSTYYADSVKGRFTFSRDNAKNTVYLQMNSLKPEDTAVYYCAVVFNPHRYTGVLAGYDYWGQGTQVTVSS | high polyreactivity |
| QVQLVESGGGLVQAGGSLRLSCAASGLTIYYYAMGWYIQAPGKEREFVAAISWHGGSTYYADSVKGRFTISRDNAKNTVYLQMNSLKPEDTAVYYCAADIYLRGFHYDYWGLGTQVTVSS | low polyreactivity |
| QVQLVESGGGLVQAGGSLRLSCAASGLTLETNAMGWYRQAPGKERELVAGITYSGGTTYYADSVKGRFTISRDNAKNSVYLQINSLKPDDTAVYDCNAGPLRSGRYTYYYWGQGTQVTVSS | low polyreactivity |
